# The nanobody polyreactivity screen of Harvey et al. (2022)
# Experiment: yeast display, Sf9 membrane polyspecificity reagent, FACS + sequencing; frameworks hold sequencing errors
# How it was run: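 Nanobodies came from a synthetic yeast display library in Saccharomyces cerevisiae BJ5465, induced with galactose for 36–48 hours and stained for 1 hour at 4 °C with 10% biotinylated, detergent-solubilized Sf9 membrane reagent. Cells were enriched on streptavidin microbeads and then FACS-sorted, with low and high (top ~1%) gates set on anti-HA fluorescence for expression and streptavidin fluorescence for reagent binding. Each polyreactivity label reflects the gate a clone came from. Genes were amplified by colony PCR, sequenced by MiSeq 2 × 250 and filtered by CDR length.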
row,Sequence,polyreactivity (PSR sort gate)
1,QVQLVESGGGLVQAGGSLRLSCAASGSIFDDNAMGWYRQAPGKERELVAAITSTDSTNYADSVKGRFTISRDNAKNTVYLQMNSLKPEDTAVYYCAKDARALWLHSGIYDYWGQGTQVTVSS,low polyreactivity
2,QVQLVESGGGLFQAGGSLRLTCAASGRIFTHYSMGWYRQPPGKEREFVAAISRSGARTYYADSVKGRFTISRDYAKNTVYLQMYSLKREVTSVYYCAKDQVDSPRDRYQKLDFWGQGTQVTVSS,low polyreactivity
3,QVQLVQSGGGLVQEGGSLRLSCYASGRIFSIYTLGWYRQAPGKERELVAAIRWSGGSTYYADSVKWRLTISRDNAKNTVYLQMNSLKPEDTAVYYCARQSVLGYRSYGPFPKYYYWGQGTQVTVSS,high polyreactivity
4,QVQLVESGGGLVQAGGSLRLSCAASGRIFKYYTMGWYRQAPGKERELVAAISRDDSTNYADSVKGRFTISRDNAKNTVYLQMNSLKPEDTAVYYCAKGYHQYAGFYYWGQGTQVTVSS,high polyreactivity
5,HVQLQESGGGLVQAGGSLRLSSAASATITYSRNMGWYRQAPGKELELVAAIDRGAITYYADSVKGRFTISRDNAKNTVYLHIYSLKPEDTAVYYCAAVYHDRWDHRFWGQGTQVTVSS,high polyreactivity
6,QVQLEESRGGLVQAGGSLRLSCAASGLNFRSNAMGWYRQAPGKERELVAAISSSGGSTYYADSVKGRFTISRENAKNTVYLQMNSLKPEDTAVYYCAAEDPADQYDYWGQGTQVTVSS,high polyreactivity
7,QLQLVESGGGLVQAGGSRRLSCAASGSTFGRYAMGWYRQAPGKERELVAAISRRGTSTYYADSVKGRFTISRDNAKNTVYIQMNSLKPEDTAVYYSNAVTSSFYNRDSDYWGQGTQVTVSS,high polyreactivity
8,QVQHVESGGGLVQAGGSLRLSCAASGRIFDLNAMGWYRQATGKERELVAAISYSGGRTFSADSVKRRFTISRDNAKNTVYLQMNSLKPEDTAVYYCAAVAYLNWTPHYYWGQGTQVTVSS,low polyreactivity
9,QVQLVESGGGLVQAGGSLRLSCAASGSTSKWYAMGWYRQAPGKERELVAAITKTGGRTYYADSVKGRFTFSRDYAKNTVYLQMNSLKPEDTAVYYCAVEYLRGFIVIYDNWGQGTQVTVSS,high polyreactivity
10,QVQLVQSGGGLVQAGGSLRLSCAASGYILNPYAMGWYRPAPGKERELVAAITSGTITYYADSVKGRFTITRDNAKNTVYLQMNSLKPEDTAVYYCAADSWAHYESYDYWGQGTQVTVSS,low polyreactivity
11,QVQLVESGGGLVQAGGSLRLICAASGSTFAFYAMGWYRQAPGKERELVAAISRSGGRTYYADSVKGRFTISRDNAKNTVYLQMNSLKPEDTAVYYCAAPSRITTGPHREYDYWGQGTQVTVSS,high polyreactivity
12,QVQLVESGGGLVQAGGSLRLSCAASGFTFLANGMGWYRQAPGKERELVAGITKDGGSTYADSVKGRFTISRDNAKNTVYLQMNSLKPEDTAVYYCAASIFSFSGGLNNGGTRGYWGQGTQVTVSS,low polyreactivity
13,QVQLLESGGGLVQSGGSLRLSCAASGRNFTPYAMGWYRQAPGKERELVAAITGSGGITYYADSVKGRFTISRDNAKNTVYFQMNSLKPVDTAVYYCAKDWWQSDSVGDYTHYEYDYWGQGTQVTVSS,low polyreactivity
14,QVQLVESGGGIVQAGGSLRLSCASSGFTLGLYAMGWYRQAPGKERELVAVISGRGSRTYYADSVKGRFTISRDNAKNTVYLQMNSLKPEDTAVYYCAASYRTYYRTGYDYWGQGTQVTVSS,high polyreactivity
15,QVQLVESGGGLVQAGGSLRLSCAASGRTFNKYAMGWYTQAPGKERELVAAISTRGGSTYYADSVKGRFTISRDNAKNTVDLQMNSLKPEDTAVYYCAARLTTVGQGFDYWGQGTQVTVSS,high polyreactivity
16,QVQLVESGGGLVQAGGSLRLSCAASGSIFATYAMGWYRQAPGKEMELVAVISCGGGRTNYADSVKGRFTISRDNAKNTVYLQLNSLKPEDTAVYYCAAGGYWRIATDGPRGGDYWGQGTQVTVSS,high polyreactivity
17,QVQLVESGGGLVQAGGSLRLSCAASGLTIFVNAMGCYRQAPGKERELVATISGGGSTYYADSVKGRFTISRDNAKNTVYLQMNSLKPEDTAVYYCNADVLFYTYYTRGRFDFDYWGQGTQVTVSS,low polyreactivity
18,QVQLVESGGGLVQAGGSLRLSCAASGRIFDHYAMGWYRQAPGKERELVAAINSGGTTNYADSVKGRFTISRDNAKNTVYLQMNSLKPEETAVYYCAARPRKGQYYFGGNYWGQGTQVTVSS,low polyreactivity
19,QVQLVESGGGLVQAGGSLRLICAASGRISGRYAMGWYRQAPGKERELVAAITSRGGRTYYADSVKGRFTISRDNAKNTVYLQMNSLKPEDTAVYYCIAVGGYWFDYWGQGTQVTVSS,high polyreactivity
20,QVQLVESGGGLVQAGGSLRLSCAASGRTFFDYVMGWYRQAPGKERELVAAISTSGTSTYYADSVKGRFTISRDNAKNTVYLHMNSLKPEDTAVYYCAAGNYLYSYGYGYWGQGTQVTVSS,high polyreactivity
21,QVQLGESGGGLVQAGGSLRLSCAASGSTFHPHAMGWYRQAPGKERELVATIRRTGDSTYDADSVKGRFTISRDHAKNTVNLQMNSLKPEDTAVYYCAARYYAESYRYYYWGQGTQGTVSS,high polyreactivity
22,QVQLVESGGGLVQAGGSLRLSCAASGIFDPNAMGWYRQAPGKERELVAAITSGGSTNYADSVKGRFTISRDNAKNTVYLQMNSLKPVDTAVYYCNADSYDEIKYGYWGQGTQVTVSS,low polyreactivity
23,QVQLVESGGGLVQAGGSLRLSCAASGSIFGYYAMGWYRQTPGKERELVAAIRWRGGRTYYADSVKGRFTISRDNAKNTVYLQMNSLKPEDTAVYYCNTRRTGRRSTTPGDYWGQGTQVTVSS,high polyreactivity
24,QVQLVESGGGLVQAGGSLRLSCAASGRIFYDYTMGWYRQAPGKERELVAAINSGGGSTYYADSVKGRFTISRDNAKITVYLQMNSLKPEDTAVYYCNADGQWNIWEYDYWGQGTQVTVSS,high polyreactivity
25,QVQLVESGGGLVQAGGSLRLSCAASGSTFGMNAMGWYRQAPGKERELVAAIDSSGGTTYYADSVKGRFTISRDHAKNTVYLQMNSRKPEDTAVYYCAADDNYYTFGYWGQGSQVTVSS,high polyreactivity
26,QVQLVESGGGLVQAGGSLRLSCAASGYTFLDYAMAWYRQAPGKERELVAAINSGGSTYYADSVKGRFTISRDNAKNTVYLQMNSLKPEDTAVYYCAREDYVSYRLLYYLFDYWGQGTQVTVSS,low polyreactivity
27,QVQRVESGGGLVQAGGSLRLSCAASGSIFWRNAMGWSRQAPGKERELVAAITSGGSTDYADSVKGGFRISRDTAKNTVYLQIHSLKPEDPAVYYCAAVTWSGWDGYYYWGQGTQVTVSS,low polyreactivity
28,QVQLVESGGGLVQAGGSLRLSCAASGSTFYIYGMGWYRQAPGKERELVARISSGGSTYADSVKGRFTISRDNAKNTVYLQMNSLKPEDTAVYYCAAAAARTYRRYRYEGYYYWGQGTQVTVSS,high polyreactivity
29,QVQLVESGGGLVHAGGSHRLSCAASGFTFTFYAMGWYRQAPVKERELVAAIRTSDGRTYYADSVKGRFTISRDNAKNTVYLQMNSLKPEDTAVYYCAAQVYRPRARYYEYDYWGQGTQVTVSS,high polyreactivity
30,QVQLVESWGGLVQAGGSLRLSCAASGITFDGYDMGWYRQAPGKERELVATIDSGGITYYADSVKGRFTISRDNAKNTVYLQMNSLKPEDTAVYYCNADEWYYNFDIVEFDYWGQGTQVTVSS,low polyreactivity
